According to PMC5442856, “A bacterial negative transcription regulator binding on an inverted repeat in the promoter for epothilone biosynthesis”:

Target: T1, Esi (His-Esi) (Sorangium cellulosum So0157-2, UniProt UPI000354DD11 1-373)
T1 sequence: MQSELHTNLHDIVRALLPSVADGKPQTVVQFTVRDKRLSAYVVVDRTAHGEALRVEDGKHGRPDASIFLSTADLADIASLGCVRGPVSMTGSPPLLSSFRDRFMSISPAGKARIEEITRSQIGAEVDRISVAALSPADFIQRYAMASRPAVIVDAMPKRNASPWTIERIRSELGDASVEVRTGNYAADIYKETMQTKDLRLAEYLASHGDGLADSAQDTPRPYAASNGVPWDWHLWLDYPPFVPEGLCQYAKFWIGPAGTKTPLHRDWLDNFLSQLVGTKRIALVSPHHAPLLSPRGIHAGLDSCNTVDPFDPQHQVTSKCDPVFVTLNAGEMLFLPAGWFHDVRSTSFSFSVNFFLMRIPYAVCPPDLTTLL
Test: EMSA; poly(dI-dC) competitor; increasing His-Esi; 12 pmol DNA; EMSA: 25 uL with 2.5 uL of 10x buffer (final about 12 mM HEPES, 4 mM Tris, 60 mM KCl, 5 mM MgCl2, 0.1 mM EDTA, pH 8.0), 1 uL glycerol buffer (20% glycerol, 20 mM HEPES), poly(dI-dC), remainder protein and 50 mM NaH2PO4; 30 C, 30 min; 5% native PAGE in TGE pH 8.0 at 4 C
Settings: protein: recombinant; tags: N-terminal 6xHis (pET-28a); blunt

B1: 17-bp operator of epothilone promoter (dsDNA)
DNA 1: GGGACGAGCTAATTCCC
DNA 2: GGGAATTAGCTCGTCCC
binding result: binds
